In patent US20250215097A1 (BEIJING TIANNUOJIANCHENG PHARMA TECH, published 2025):

Legend:
[1] = biological target: T1, rabbit CCR8 (rabbit); assay: flow cytometry on HEK293-rabbit CCR8 cells
T1 construct: Transiently expressed on HEK293 cells; also called HEK293-rabbit CCR8 cells; rabbit CCR8+ cells
T1 chain: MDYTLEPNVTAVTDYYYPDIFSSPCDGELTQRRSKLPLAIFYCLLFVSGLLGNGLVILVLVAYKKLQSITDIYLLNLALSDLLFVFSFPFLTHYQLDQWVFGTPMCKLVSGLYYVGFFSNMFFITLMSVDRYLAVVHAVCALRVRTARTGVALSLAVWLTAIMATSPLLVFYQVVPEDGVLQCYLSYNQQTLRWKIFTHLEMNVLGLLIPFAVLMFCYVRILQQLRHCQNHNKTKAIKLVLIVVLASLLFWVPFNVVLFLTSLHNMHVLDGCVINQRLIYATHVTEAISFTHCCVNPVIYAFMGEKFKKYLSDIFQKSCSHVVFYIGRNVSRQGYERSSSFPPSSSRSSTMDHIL
Procedure: A lentiviral vector plasmid containing rabbit CCR8 was constructed by using a rabbit CCR8 cDNA (biosynthesized by GENEWIZ, Suzhou and having the amino acid sequence shown in SEQ ID NO. 112) as a template. The lentiviral vector plasmid containing rabbit CCR8 was transfected into HEK293 cells (hereinafter referred to HEK293-rabbit CCR8 cells) by using PEI MAX® (Polysciences 9002-98-6) as a transfection reagent referring to instructions of a transfection reagent. 24 hours after the transfection, 5×10⁴ HEK293-rabbit CCR8 cells were added per well in a 96-well U-shaped plate and centrifuged to discard the supernatant. 100 μL of a gradiently diluted h87D8 H2K4 e5 or anti-KLH isotype control antibody was added per well and the mixture was incubated on ice for 60 minutes. After the unbound primary antibody was washed away, 50 μL of a secondary antibody AlexaFluro647 anti-human IgG (Jackson Immuno Research #109-606-170) was added per well and the mixture was incubated on ice for 30 minutes. After the washing. […] Then excess secondary antibody was washed away with 0.5% BSA, the cells were resuspended by adding a PBS solution, and binding of the antibody to the cells was detected using a flow cytometer (Intellicyte iQue). The fluorescence value of a PI-negative cell population was analyzed. […]

[2] = biological target: T2, FcγRIIIAV158 (UniProt P08637 17-208); assay: SPR (Biacore T200), antibody captured by anti-human IgG F(ab')2 on CM5, FcγRIIIA as analyte; FcγRIIIAV158
T2 construct: V158 allotype; also called FcγRIIIA158V
Procedure: (§1) The affinities of the Fc function-enhanced humanized CCR8 antibodies to FcγRIIIAV158 and FcγRIIIAF158 were detected by using a surface plasmon resonance technology (SPR/Biacore T200). A coupling reagent Amine Coupling Kit (GE Healthcare BR-1000-50) was used to couple Goat Anti-Human IgG F(ab′)2 to the surface of a CM5 chip. h87D8 H2K4 e5 or h87D8 H2K4 was captured through high-affinity binding with the antibodies and then gradiently diluted FcγRIIIAV158 or FcγRIIIAF158 was injected in sequence. The binding time was set to be 120 seconds, the dissociation time was set to be 200 seconds, regeneration was performed for 30 seconds by 10 mM Glycine-HCl with the pH value of 1.75, and the flow rate was set to be […]. The measured data were fitted to obtain an equilibrium dissociation constant. The affinities of h87D8 H2K4 e5 or h87D8 H2K4 to FcγRIIIAV158 and FcγRIIIAF158 were respectively measured. […] The binding of h87D8 H2K4 e5 to FcγRIIIAV158 and FcγRIIIAF158 was stronger than that of h87D8 H2K4.

[3] = biological target: T3, human CCR8 (human, UniProt P51685 1-355); assay: cell-based or functional assay
[4] = biological target: T4, FcγRIIIAF158 (UniProt P08637 17-208); assay: SPR (Biacore T200), antibody captured by anti-human IgG F(ab')2 on CM5, FcγRIIIA as analyte; FcγRIIIAF158
T4 construct: F158 allotype; also called FcγRIIIA158F
Procedure: as §1

[5] = biological target: T3, human CCR8; assay: cell-based or functional assay; remark: listed apart in the source
[6] = biological target: T3, human CCR8; assay: flow cytometry on CHO-hCCR8 cells
Procedure: (§2) 5×10⁴ CHO-hCCR8 or CHO-cynoCCR8 cells were added per well in a 96-well U-shaped plate and centrifuged to discard the supernatant. 100 μL of a gradiently diluted anti-CCR8 chimeric antibody was added per well and the mixture was incubated on ice for 60 minutes. After the unbound primary antibody was washed away, 50 μL, of a secondary antibody AlexaFluro647 anti-human IgG (Jackson Immuno Research #109-606-170) was added per well and the mixture was incubated on ice for 30 minutes. After the washing, 50 μL of 5 μg/mL of a Pi/BSA solution was added to each well and the mixture was incubated on ice for 5 minutes. Then excess secondary antibody was washed away with 0.5% BSA, the cells were resuspended by adding a PBS solution, and binding of the antibody to the cells was detected using a flow cytometer (BD Celesta). The fluorescence value of a PI-negative cell population was analyzed. Cell-binding curves were fitted by Graphpad Prism 7.

[7] = biological target: T5, cynomolgus monkey CCR8 (cynomolgus monkey, UniProt O97665 1-356 (rhesus entry)); assay: flow cytometry on CHO-cynoCCR8 cells
T5 construct: Full-length, stably expressed on CHO cells; also called cynoCCR8; CHO-cynoCCR8
Procedure: as §2

T3 sequence (P51685 whole entry): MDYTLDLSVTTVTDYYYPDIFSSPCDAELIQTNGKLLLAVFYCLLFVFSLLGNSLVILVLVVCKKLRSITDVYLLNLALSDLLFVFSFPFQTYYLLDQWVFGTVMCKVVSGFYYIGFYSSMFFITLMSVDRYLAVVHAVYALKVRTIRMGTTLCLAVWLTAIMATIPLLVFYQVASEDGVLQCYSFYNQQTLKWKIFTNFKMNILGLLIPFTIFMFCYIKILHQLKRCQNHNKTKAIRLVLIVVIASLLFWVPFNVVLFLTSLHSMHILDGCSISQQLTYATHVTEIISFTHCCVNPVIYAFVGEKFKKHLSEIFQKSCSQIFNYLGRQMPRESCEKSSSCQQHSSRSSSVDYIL
T4 sequence (P08637 17-208 limits assumed): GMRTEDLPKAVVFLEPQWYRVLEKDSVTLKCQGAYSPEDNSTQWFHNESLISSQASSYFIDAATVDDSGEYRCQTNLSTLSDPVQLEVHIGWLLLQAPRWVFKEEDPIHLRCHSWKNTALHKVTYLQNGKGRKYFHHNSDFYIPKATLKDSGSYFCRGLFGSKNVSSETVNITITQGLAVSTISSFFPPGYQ
T2 sequence (P08637 17-208 F176V limits assumed): as the sequence (P08637 17-208 limits assumed) above, with F160V counted along it
T5 sequence (O97665 other isoform, or with tags, fused parts or gaps): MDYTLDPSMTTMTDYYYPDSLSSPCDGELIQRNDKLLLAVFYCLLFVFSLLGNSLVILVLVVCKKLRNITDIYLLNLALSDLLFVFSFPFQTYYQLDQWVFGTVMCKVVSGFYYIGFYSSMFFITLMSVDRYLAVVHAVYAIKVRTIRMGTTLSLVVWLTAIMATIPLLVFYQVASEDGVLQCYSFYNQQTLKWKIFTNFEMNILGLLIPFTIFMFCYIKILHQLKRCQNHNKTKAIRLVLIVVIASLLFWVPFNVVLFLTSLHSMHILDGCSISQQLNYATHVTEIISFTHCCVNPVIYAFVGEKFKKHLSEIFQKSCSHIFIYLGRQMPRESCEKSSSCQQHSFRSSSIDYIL

B1: h87D8 H2K4 hIgG1 e5 (antibody)
heavy: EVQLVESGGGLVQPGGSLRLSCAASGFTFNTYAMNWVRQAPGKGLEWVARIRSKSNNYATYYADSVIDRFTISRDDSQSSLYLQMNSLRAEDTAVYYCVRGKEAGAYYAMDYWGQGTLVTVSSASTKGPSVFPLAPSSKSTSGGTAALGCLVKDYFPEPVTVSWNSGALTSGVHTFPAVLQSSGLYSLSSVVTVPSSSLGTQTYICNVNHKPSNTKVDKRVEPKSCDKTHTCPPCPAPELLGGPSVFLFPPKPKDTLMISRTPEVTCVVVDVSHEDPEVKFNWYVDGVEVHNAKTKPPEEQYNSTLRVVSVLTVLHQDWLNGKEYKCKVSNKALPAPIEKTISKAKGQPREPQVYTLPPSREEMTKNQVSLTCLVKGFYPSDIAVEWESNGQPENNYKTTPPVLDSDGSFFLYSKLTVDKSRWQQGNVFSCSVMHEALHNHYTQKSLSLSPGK
light: DIVMTQSPLSLPVTPGEPASISCRSSKSLLHSNYNTYLYWFLQKPGQSPQLLIYRTSNLASGVPDRFSGSGSGTDFTLKISRVEAEDVGVYYCMQHLEYPLTFGQGTKLEIKRTVAAPSVFIFPPSDEQLKSGTASVVCLLNNFYPREAKVQWKVDNALQSGNSQESVTEQDSKDSTYSLSSTLTLSKADYEKHKVYACEVTHQGLSSPVTKSFNRGEC
notes: also called h87D8 H2K4 e5; h87D8H2K4e5; copies: 2 + 2
EC50 [1]: 0.21 nM
Kd [2]: 270 nM
ADCC half-maximal effective concentration EC50, NK92-CD16A effectors, HuT78 targets [3]: 0.53 nM
ADCC maximal lysis rate, NK92-CD16A effectors, HEK293-hCCR8 targets [3]: 61%
half-maximal effective concentration EC50 of inhibition of the Ca2+ current signal, CHO-hCCR8 cells, CCL1 stimulus [3]: 5.2 nM
Kd [4]: 433 nM
ADCC EC50 (nM), PBMC FcγRIIIA158F/F effectors, HEK293-hCCR8 targets [5]: 0.02 nM
ADCC EC50 (nM), PBMC FcγRIIIA158V/V effectors, HEK293-hCCR8 targets [5]: 0.01 nM
ADCC maximal lysis rate, PBMC FcγRIIIA158F/F effectors, HEK293-hCCR8 targets [5]: 77%
ADCC maximal lysis rate, PBMC FcγRIIIA158V/V effectors, HEK293-hCCR8 targets [5]: 75%

B2: h87D8 H2K4 hIgG1 (antibody)
heavy: not shown
light: B1 light
notes: Humanized, wild-type human IgG1 Fc; also called h87D8 VHv2+h87D8 VKv4; copies: 2 + 2
EC50 [6]: 0.68 nM
Kd [2]: 861 nM
Kd [4]: 1300 nM
EC50 [7]: 2.28 nM
